The target of one assay is HLA-A*68:02. The assay is described as follows: IEDB peptide-MHC binding, cellular MHC/competitive/fluorescence; ≥ and ≤ were set here for values at or beyond the usual limits of such assays.
For another assay, the target named is HLA-A*02:01. The assay is described as follows: IEDB peptide-MHC binding, purified MHC/competitive/radioactivity; ≥ and ≤ were set here for values at or beyond the usual limits of such assays.
The target in another assay is HLA-A*02:02. Described as above.
A further assay addresses HLA-A*02:03. Described as above.
A further assay has as its target HLA-A*02:06. Described as above.
The mark [1] stands for this setting: source organism: Vaccinia virus WR.
The mark [2] stands for this setting: source organism: Hepacivirus hominis.
Where [3] appears, read: source organism: Mammarenavirus choriomeningitidis.
Setting [4] is: source organism: Mammarenavirus brazilense.
Setting [5] is: source organism: Mammarenavirus machupoense.
Where [6] appears, read: source organism: Mammarenavirus whitewaterense.

Results on 23 sequences are retold here after the Immune Epitope Database (IEDB).

As usually defined, the IC50 is the midpoint of a concentration-inhibition curve.

Consider FMEEEIKAEM, for which the IC50 in the assay with HLA-A*68:02 (setting [1]) amounted to 16800 nM; in the assay with HLA-A*02:01 (setting [1]), 86 nM; in the assay with HLA-A*02:02 (setting [1]) it was 1030 nM; with HLA-A*02:03 (setting [1]) it was 3070 nM; in the assay with HLA-A*02:06 (setting [1]), 865 nM.
With FMLCLLLLS, the IC50 in the assay with HLA-A*68:02 (setting [2]) is at least 70000 nM; with HLA-A*02:01 (setting [2]) it was 2730 nM; with HLA-A*02:02 (setting [2]), 997 nM; in the assay with HLA-A*02:03 (setting [2]), 1450 nM; with HLA-A*02:06 (setting [2]), 2100 nM.
The matching figures for FMLCLLLLSV: 28100 nM, 149 nM, 472 nM, 315 nM and 194 nM.
On to FMLNVSYLC, for which the IC50 with HLA-A*68:02 (setting [3]) came out at 8480 nM; with HLA-A*02:01 (setting [3]) it was 1050 nM; with HLA-A*02:02 (setting [3]), 196 nM; with HLA-A*02:03 (setting [3]), 1260 nM; with HLA-A*02:06 (setting [3]), 932 nM.
As for FQFICNLLLL, the IC50 with HLA-A*68:02 (source organism: SARS-CoV1) was found to be 9080 nM; in the assay with HLA-A*02:01 (source organism: SARS-CoV1) it was 5.3 nM; with HLA-A*02:02 (source organism: SARS-CoV1) it was 7.9 nM; in the assay with HLA-A*02:03 (source organism: SARS-CoV1) it was 62 nM; in the assay with HLA-A*02:06 (source organism: SARS-CoV1), 0.87 nM.
As to GAFMYTKHSM, the IC50 in the assay with HLA-A*68:02 (setting [1]) came out at 9600 nM; with HLA-A*02:01 (setting [1]), 2000 nM; with HLA-A*02:02 (setting [1]), 544 nM; in the assay with HLA-A*02:03 (setting [1]), 458 nM; with HLA-A*02:06 (setting [1]) it was 3140 nM.
The matching figures for GIADIRDKYM: 5930 nM, 1100 nM, 0.69 nM, 48 nM and 1780 nM.
Consider GIAIFNNRNL, for which the IC50 in the assay with HLA-A*68:02 (setting [1]) worked out at 11100 nM; with HLA-A*02:01 (setting [1]) it was 1330 nM; in the assay with HLA-A*02:02 (setting [1]), 5.1 nM; in the assay with HLA-A*02:03 (setting [1]) it was 2040 nM; in the assay with HLA-A*02:06 (setting [1]) it was 4720 nM.
For GIIITVGMLI the same measures were 9200 nM, 945 nM, 3580 nM, 595 nM and 1130 nM.
For GLCNYGGIL, the IC50 with HLA-A*68:02 (setting [1]) is at least 70000 nM; with HLA-A*02:01 (setting [1]) it was 412 nM; with HLA-A*02:02 (setting [1]), 98 nM; in the assay with HLA-A*02:03 (setting [1]) it was 125 nM; with HLA-A*02:06 (setting [1]) it was 1360 nM.
For GLDERFVEEL the same measures were 6180 nM, 331 nM, 93 nM, 1210 nM and 2520 nM.
GLFDINVIGL: the IC50 in the assay with HLA-A*68:02 (setting [1]) worked out at 7080 nM; with HLA-A*02:01 (setting [1]), 13 nM; with HLA-A*02:02 (setting [1]), 0.16 nM; with HLA-A*02:03 (setting [1]) it was 1.4 nM; in the assay with HLA-A*02:06 (setting [1]) it was 240 nM.
Consider GLIHACMLV, for which the IC50 amounted to 37400 nM with HLA-A*68:02 (setting [2]); 1.3 nM in the assay with HLA-A*02:01 (setting [2]); 1.5 nM with HLA-A*02:02 (setting [2]); 1.9 nM with HLA-A*02:03 (setting [2]); 12 nM with HLA-A*02:06 (setting [2]).
As to GLKIEEIEKV, the IC50 was at least 70000 nM in the assay with HLA-A*68:02 (setting [1]); 65 nM with HLA-A*02:01 (setting [1]); 15 nM in the assay with HLA-A*02:02 (setting [1]); 6.6 nM with HLA-A*02:03 (setting [1]); 198 nM in the assay with HLA-A*02:06 (setting [1]).
As for GLLDSIKMI, the IC50 with HLA-A*68:02 (setting [1]) was at least 70000 nM; in the assay with HLA-A*02:01 (setting [1]) it was 15 nM; in the assay with HLA-A*02:02 (setting [1]) it was 80 nM; with HLA-A*02:03 (setting [1]), 14 nM; with HLA-A*02:06 (setting [1]), 43 nM.
Consider GLLEWIFRA, for which the IC50 with HLA-A*68:02 (setting [4]) worked out at 53100 nM; with HLA-A*02:01 (setting [4]), 1.2 nM; in the assay with HLA-A*02:02 (setting [4]), 22 nM; in the assay with HLA-A*02:03 (setting [4]), 226 nM; in the assay with HLA-A*02:06 (setting [4]), 7.1 nM.
As for GLLGCIITSL, the IC50 with HLA-A*68:02 (setting [2]) was found to be 48900 nM; in the assay with HLA-A*02:01 (setting [2]), 15 nM; with HLA-A*02:02 (setting [2]) it was 35 nM; with HLA-A*02:03 (setting [2]), 3.1 nM; with HLA-A*02:06 (setting [2]), 316 nM.
In the case of GLLLLCVGV, the IC50 worked out at 49200 nM with HLA-A*68:02 (setting [2]); 43 nM with HLA-A*02:01 (setting [2]); 479 nM with HLA-A*02:02 (setting [2]); 285 nM with HLA-A*02:03 (setting [2]); 892 nM with HLA-A*02:06 (setting [2]).
The matching figures for GLLYFILFFV: 23200 nM, 51 nM, 141 nM, 187 nM and 678 nM.
As for GLRQQLEDI, the IC50 is at least 70000 nM with HLA-A*68:02 (setting [1]); 125 nM with HLA-A*02:01 (setting [1]); 43 nM with HLA-A*02:02 (setting [1]); 4.7 nM with HLA-A*02:03 (setting [1]); 4310 nM with HLA-A*02:06 (setting [1]).
Take GLSQFTHTV: the IC50 with HLA-A*68:02 (setting [5]) amounted to 15100 nM; with HLA-A*02:01 (setting [5]), 18 nM; in the assay with HLA-A*02:02 (setting [5]), 5.3 nM; with HLA-A*02:03 (setting [5]), 7.7 nM; with HLA-A*02:06 (setting [5]) it was 332 nM.
With GLVDVCFWS, the IC50 was found to be 8220 nM with HLA-A*68:02 (setting [6]); 112 nM with HLA-A*02:01 (setting [6]); 116 nM in the assay with HLA-A*02:02 (setting [6]); 1070 nM with HLA-A*02:03 (setting [6]); 534 nM with HLA-A*02:06 (setting [6]).
As to GLYIPGTSVI, the IC50 with HLA-A*68:02 (setting [1]) was at least 70000 nM; with HLA-A*02:01 (setting [1]) it was 1570 nM; in the assay with HLA-A*02:02 (setting [1]), 92 nM; with HLA-A*02:03 (setting [1]), 0.19 nM; in the assay with HLA-A*02:06 (setting [1]) it was 3620 nM.
